Results as given in article PMC3348966 (Proteins, 2012).
Like-named read-outs stand apart in the source and are kept apart here.

Key:
[1] = biological target: XloA (Thermotoga maritima, UniProt Q9WXT1); assay: p-nitrophenol release at […] nm; format: biochemical; settings: data not shown; auxiliary enzyme
[2] = substrate: CC(=O)Oc1ccc([N+](=O)[O-])cc1; assay: purified protein; format: biochemical, Thermotoga maritima; settings: 50 mM citrate-phosphate pH 6, 70 °C (standard assay)
[3] = substrate: CCC(=O)Oc1ccc([N+](=O)[O-])cc1; assay: purified protein; format: biochemical, Thermotoga maritima; settings: 50 mM citrate-phosphate pH 6, 70 °C (standard assay)
[4] = substrate: CC(=O)O[C@@H]1[C@@H](O)[C@H](Oc2ccc([N+](=O)[O-])cc2)OC[C@H]1O; assay: purified protein; format: biochemical, Thermotoga maritima; settings: 0.1 M sodium phosphate pH 7, 60 °C, excess XloA
[5] = substrate: CC(=O)O[C@@H]1CO[C@@H](Oc2ccc([N+](=O)[O-])cc2)[C@H](O)[C@H]1O; assay: purified protein; format: biochemical, Thermotoga maritima; settings: 0.1 M sodium phosphate pH 7, 60 °C, excess XloA
[6] = substrate: CC(=O)O[C@H]1[C@H](Oc2ccc([N+](=O)[O-])cc2)OC[C@@H](O)[C@@H]1O; assay: purified protein; format: biochemical, Thermotoga maritima; settings: 0.1 M sodium phosphate pH 7, 60 °C, excess XloA
[7] = biological target: the molecule itself; assay: crystal structure
[8] = biological target: the molecule itself; assay: crystal structure; remark: listed apart in the source

`O=[N+]([O-])c1ccc(O[C@@H]2OC[C@@H](O)[C@H](O)[C@H]2O)cc1` [4-nitrophenyl β-D-xylopyranoside] was tested, and the “p-nitrophenol release at 405 nm” value [1] was “its activity was confirmed by measuring release of p-nitrophenol from the substrate pNP-Xyl”.

B1: TM0077 (Thermotoga maritima MSB8) (protein)
chain: MAFFDLPLEELKKYRPERYEEKDFDEFWEETLAESEKFPLDPVFERMESHLKTVEAYDVTFSGYRGQRIKGWLLVPKLEEEKLPCVVQYIGYNGGRGFPHDWLFWPSMGYICFVMDTRGQGSGWLKGDTPDYPEGPVDPQYPGFMTRGILDPRTYYYRRVFTDAVRAVEAAASFPQVDQERIVIAGGSQGGGIALAVSALSKKAKALLCDVPFLCHFRRAVQLVDTHPYAEITNFLKTHRDKEEIVFRTLSYFDGVNFAARAKIPALFSVGLMDNICPPSTVFAAYNYYAGPKEIRIYPYNNHEGGGSFQAVEQVKFLKKLFEKG
For B1, the Km [2] was 0.185 ± 0.026 mM, the kcat [2] was 57.5 ± 2.2 s⁻¹ and the kcat/Km [2] was 311000 ± 45300 M⁻¹ s⁻¹. It also gave a Km [3] of 0.137 ± 0.013 mM, a kcat [3] of 41.3 ± 1.1 s⁻¹ and a kcat/Km [3] of 302000 ± 29700 M⁻¹ s⁻¹. It also gave a Km [4] of 4.2 ± 0.4 mM, a kcat [4] of 70.1 ± 7.7 s⁻¹ and a kcat/Km [4] of 16700 ± 2400 M⁻¹ s⁻¹. It also gave a Km [5] of 4.0 ± 0.1 mM, a kcat [5] of 78.6 ± 12.9 s⁻¹ and a kcat/Km [5] of 19700 ± 3300 M⁻¹ s⁻¹. For the same molecule, the Km [6] was 3.6 ± 0.5 mM, the kcat [6] was 76.1 ± 19.2 s⁻¹ and the kcat/Km [6] was 21100 ± 6100 M⁻¹ s⁻¹.

B2: selenomethionine-substituted TM0077 (acetyl esterase from Thermotoga maritima) (enzyme, UniProt Q9WXT2 1-325, looked up)
chain: MAFFDLPLEELKKYRPERYEEKDFDEFWEETLAESEKFPLDPVFERMESHLKTVEAYDVTFSGYRGQRIKGWLLVPKLEEEKLPCVVQYIGYNGGRGFPHDWLFWPSMGYICFVMDTRGQGSGWLKGDTPDYPEGPVDPQYPGFMTRGILDPRTYYYRRVFTDAVRAVEAAASFPQVDQERIVIAGGSQGGGIALAVSALSKKAKALLCDVPFLCHFRRAVQLVDTHPYAEITNFLKTHRDKEEIVFRTLSYFDGVNFAARAKIPALFSVGLMDNICPPSTVFAAYNYYAGPKEIRIYPYNNHEGGGSFQAVEQVKFLKKLFEKG
modifications: selenomethionine-substituted (selenomethionine in place of methionine)
For B2, the “stoichiometry N” value [7] was 6.

B3: native TM0077 (acetyl esterase from Thermotoga maritima) (enzyme, UniProt Q9WXT2 1-325, looked up)
chain: MAFFDLPLEELKKYRPERYEEKDFDEFWEETLAESEKFPLDPVFERMESHLKTVEAYDVTFSGYRGQRIKGWLLVPKLEEEKLPCVVQYIGYNGGRGFPHDWLFWPSMGYICFVMDTRGQGSGWLKGDTPDYPEGPVDPQYPGFMTRGILDPRTYYYRRVFTDAVRAVEAAASFPQVDQERIVIAGGSQGGGIALAVSALSKKAKALLCDVPFLCHFRRAVQLVDTHPYAEITNFLKTHRDKEEIVFRTLSYFDGVNFAARAKIPALFSVGLMDNICPPSTVFAAYNYYAGPKEIRIYPYNNHEGGGSFQAVEQVKFLKKLFEKG
B3 was tested, and the “stoichiometry N” value [8] was 6.

B4: TM0077-PMSF complex (TM0077 with PMS-modified Ser188) (enzyme, Thermotoga maritima, UniProt Q9WXT2 1-325, looked up)
chain: MAFFDLPLEELKKYRPERYEEKDFDEFWEETLAESEKFPLDPVFERMESHLKTVEAYDVTFSGYRGQRIKGWLLVPKLEEEKLPCVVQYIGYNGGRGFPHDWLFWPSMGYICFVMDTRGQGSGWLKGDTPDYPEGPVDPQYPGFMTRGILDPRTYYYRRVFTDAVRAVEAAASFPQVDQERIVIAGGSQGGGIALAVSALSKKAKALLCDVPFLCHFRRAVQLVDTHPYAEITNFLKTHRDKEEIVFRTLSYFDGVNFAARAKIPALFSVGLMDNICPPSTVFAAYNYYAGPKEIRIYPYNNHEGGGSFQAVEQVKFLKKLFEKG
modifications: phenylmethyl sulfonyl (PMS) moiety covalently bound to the Oγ atom of Ser188
In the case of B4, the “stoichiometry N” value [8] is reported as 6.

B5: TM0077-paraoxon complex (TM0077 with DEP-modified Ser188) (enzyme, Thermotoga maritima, UniProt Q9WXT2 1-325, looked up)
chain: MAFFDLPLEELKKYRPERYEEKDFDEFWEETLAESEKFPLDPVFERMESHLKTVEAYDVTFSGYRGQRIKGWLLVPKLEEEKLPCVVQYIGYNGGRGFPHDWLFWPSMGYICFVMDTRGQGSGWLKGDTPDYPEGPVDPQYPGFMTRGILDPRTYYYRRVFTDAVRAVEAAASFPQVDQERIVIAGGSQGGGIALAVSALSKKAKALLCDVPFLCHFRRAVQLVDTHPYAEITNFLKTHRDKEEIVFRTLSYFDGVNFAARAKIPALFSVGLMDNICPPSTVFAAYNYYAGPKEIRIYPYNNHEGGGSFQAVEQVKFLKKLFEKG
modifications: diethyl-phosphate (DEP) moiety covalently bound to the Oγ atom of Ser188
B5 was tested, and the “stoichiometry N” value [8] was 6.
